Experimental data from PMC5902676 (Biochemical Journal, 2018).

Molecular target: T1, HybC (large subunit of E. coli Hydrogenase-2), processed form of 552 residues (E. coli, UniProt P0ACE0 1-552)
T1 sequence (looked up): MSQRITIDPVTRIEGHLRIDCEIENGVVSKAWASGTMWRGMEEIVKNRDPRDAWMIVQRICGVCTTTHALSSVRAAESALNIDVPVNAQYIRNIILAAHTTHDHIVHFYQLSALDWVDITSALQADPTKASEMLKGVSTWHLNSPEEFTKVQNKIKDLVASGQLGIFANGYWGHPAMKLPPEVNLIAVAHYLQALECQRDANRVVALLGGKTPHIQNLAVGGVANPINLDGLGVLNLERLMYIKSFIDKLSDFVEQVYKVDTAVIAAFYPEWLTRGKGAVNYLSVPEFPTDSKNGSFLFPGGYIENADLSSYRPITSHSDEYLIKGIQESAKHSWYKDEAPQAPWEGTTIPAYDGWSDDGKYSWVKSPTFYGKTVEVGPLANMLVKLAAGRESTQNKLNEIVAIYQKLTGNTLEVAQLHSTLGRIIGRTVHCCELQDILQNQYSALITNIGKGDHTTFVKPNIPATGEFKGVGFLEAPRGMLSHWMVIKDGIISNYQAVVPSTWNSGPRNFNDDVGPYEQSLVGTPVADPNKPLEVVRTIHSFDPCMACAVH
Test: crystal structure

binding result: binds
B1: HybO ΔTat ΔTM with C-terminal His-tag (small subunit of E. coli Hydrogenase-2, encoded by plasmid pO^C) (domain or fragment, UniProt P69741 38-330, looked up)
chain: EMAESVTNPQRPPVIWIGAQECTGCTESLLRATHPTVENLVLETISLEYHEVLSAAFGHQVEENKHNALEKYKGQYVLVVDGSIPLKDNGIYCMVAGEPIVDHIRKAAEGAAAIIAIGSCSAWGGVAAAGVNPTGAVSLQEVLPGKTVINIPGCPPNPHNFLATVAHIITYGKPPKLDDKNRPTFAYGRLIHEHCERRPHFDAGRFAKEFGDEGHREGWCLYHLGCKGPETYGNCSTLQFCDVGGVWPVAIGHPCYGCNEEGIGFHKGIHQLANVENQTPRSQKPDVNAKEGG
